{"source": "paper PMC10492923", "about": "(MedComm, 2023)", "molecular_target": "T1, extracellular protease domain of wild-type ACE2 (human, UniProt Q9BYF1 19-615)", "T1 construct": "also called WT ACE2ecd; ACE2ecd", "T1 sequence (Q9BYF1 19-615)": "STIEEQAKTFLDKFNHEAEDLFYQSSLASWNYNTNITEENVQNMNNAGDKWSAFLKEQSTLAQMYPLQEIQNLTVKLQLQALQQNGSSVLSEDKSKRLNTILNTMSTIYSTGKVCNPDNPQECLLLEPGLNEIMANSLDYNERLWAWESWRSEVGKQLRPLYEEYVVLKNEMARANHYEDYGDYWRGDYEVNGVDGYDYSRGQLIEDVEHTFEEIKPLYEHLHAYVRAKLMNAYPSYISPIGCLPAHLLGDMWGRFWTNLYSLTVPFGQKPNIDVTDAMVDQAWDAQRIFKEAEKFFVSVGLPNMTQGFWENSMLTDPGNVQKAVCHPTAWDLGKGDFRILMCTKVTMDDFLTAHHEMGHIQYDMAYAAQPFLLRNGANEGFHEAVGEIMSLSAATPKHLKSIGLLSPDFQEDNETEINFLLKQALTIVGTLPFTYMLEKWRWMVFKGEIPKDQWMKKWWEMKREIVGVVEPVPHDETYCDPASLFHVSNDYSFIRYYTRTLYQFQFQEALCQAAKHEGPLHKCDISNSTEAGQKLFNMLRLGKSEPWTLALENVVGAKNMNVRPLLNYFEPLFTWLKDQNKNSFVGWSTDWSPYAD", "assay": "SPR", "details": "both partners purified"}
{"binder": "RBD of HCoV-NL63 (domain or fragment) QHTDINFTATASFGGSCYVCKPHQVNISLNGNTSVCVRTSHFSIRYIYNRVKSGSPGDSSWHIYLKSGTCPFSFSKLNNFQKFKTICFSTVEVPGSCNFPLEATWHYTSYTIVGALYVTWSEGNSITGVPYPVSGI", "values": [{"measurement": "binding result", "result": "binds"}]}
